B1: FLAG-GST-SALL4 (wild type) [human] / biotinylated CRBN (wild type) [modified: biotin (added by BirA during cell-free synthesis); biotin (added by BirA during cell-free synthesis)] [human] (parent)
chain 1: MSRRKQAKPQHINSEEDQGEQQPQQQTPEFADAAPAAPAAGELGAPVNHPGNDEVASEDEATVKRLRREETHVCEKCCAEFFSISEFLEHKKNCTKNPPVLIMNDSEGPVPSEDFSGAVLSHQPTSPGSKDCHRENGGSSEDMKEKPDAESVVYLKTETALPPTPQDISYLAKGKVANTNVTLQALRGTKVAVNQRSADALPAPVPGANSIPWVLEQILCLQQQQLQQIQLTEQIRIQVNMWASHALHSSGAGADTLKTLGSHMSQQVSAAVALLSQKAGSQGLSLDALKQAKLPHANIPSATSSLSPGLAPFTLKPDGTRVLPNVMSRLPSALLPQAPGSVLFQSPFSTVALDTSKKGKGKPPNISAVDVKPKDEAALYKHKCKYCSKVFGTDSSLQIHLRSHTGERPFVCSVCGHRFTTKGNLKVHFHRHPQVKANPQLFAEFQDKVAAGNGIPYALSVPDPIDEPSLSLDSKPVLVTTSVGLPQNLSSGTNPKDLTGGSLPGDLQPGPSPESEGGPTLPGVGPNYNSPRAGGFQGSGTPEPGSETLKLQQLVENIDKATTDPNECLICHRVLSCQSSLKMHYRTHTGERPFQCKICGRAFSTKGNLKTHLGVHRTNTSIKTQHSCPICQKKFTNAVMLQQHIRMHMGGQIPNTPLPENPCDFTGSEPMTVGENGSTGAICHDDVIESIDVEEVSSQEAPSSSSKVPTPLPSIHSASPTLGFAMMASLDAPGKVGPAPFNLQRQGSRENGSVESDGLTNDSSSLMGDQEYQSRSPDILETTSFQALSPANSQAESIKSKSPDAGSKAESSENSRTEMEGRSSLPSTFIRAPPTYVKVEVPGTFVGPSTLSPGMTPLLAAQPRRQAKQHGCTRCGKNFSSASALQIHERTHTGEKPFVCNICGRAFTTKGNLKVHYMTHGANNNSARRGRKLAIENTMALLGTDGKRVSEIFPKEILAPSVNVDPVVWNQYTSMLNGGLAVKTNEISVIQSGGVPTLPVSLGATSVVNNATVSKMDGSQSGISADVEKPSATDGVPKHQFPHFLEENKIAVS
chain 2: MAGEGDQQDAAHNMGNHLPLLPAESEEEDEMEVEDQDSKEAKKPNIINFDTSLPTSHTYLGADMEEFHGRTLHDDDSCQVIPVLPQVMMILIPGQTLPLQLFHPQEVSMVRNLIQKDRTFAVLAYSNVQEREAQFGTTAEIYAYREEQDFGIEIVKVKAIGRQRFKVLELRTQSDGIQQAKVQILPECVLPSTMSAVQLESLNKCQIFPSKPVSREDQCSYKWWQKYQKRKFHCANLTSWPRWLYSLYDAETLMDRIKKQLREWDENLKDDSLPSNPIDFSYRVAACLPIDDVLRIQLLKIGSAIQRLRCELDIMNKCTSLCCKQCQETEITTKNEIFSLSLCGPMAAYVNPHGYVHETLTVYKACNLNLIGRPSTEHSWFPGYAWTVAQCKICASHIGWKFTATKKDMSPQKFWGLTRSALLPTIPDTEDEISPDKVILCL
B2: FLAG-GST-IKZF1 (wild type) [not stated] / biotinylated CRBN (wild type) [modified: biotin (added by BirA during cell-free synthesis); biotin (added by BirA during cell-free synthesis)] [human] (parent)
chain 1: MDADEGQDMSQVSGKESPPVSDTPDEGDEPMPIPEDLSTTSGGQQSSKSDRVVASNVKVETQSDEENGRACEMNGEECAEDLRMLDASGEKMNGSHRDQGSSALSGVGGIRLPNGKLKCDICGIICIGPNVLMVHKRSHTGERPFQCNQCGASFTQKGNLLRHIKLHSGEKPFKCHLCNYACRRRDALTGHLRTHSVGKPHKCGYCGRSYKQRSSLEEHKERCHNYLESMGLPGTLYPVIKEETNHSEMAEDLCKIGSERSLVLDRLASNVAKRKSSMPQKFLGDKGLSDTPYDSSASYEKENEMMKSHVMDQAINNAINYLGAESLRPLVQTPPGGSEVVPVISPMYQLHKPLAEGTPRSNHSAQDSAVENLLLLSKAKLVPSEREASPSNSCQDSTDTESNNEEQRSGLIYLTNHIAPHARNGLSLKEEHRAYDLLRAASENSQDALRVVSTSGEQMKVYKCEHCRVLFLDHVMYTIHMGCHGFRDPFECNMCGYHSQDRYEFSSHITRGEHRFHMS
chain 2: B1 chain 2

In the first experiment the parent is B1. Kind of experiment: AlphaScreen (AS-based interaction assay). The conditions noted are these: with biotinylated CRBN (wild type) [modified: biotin (added by BirA during cell-free synthesis), (S)-5HT, last (highest) point of the titration, Log[(S)-5HT (µM)] about 2.3, signal relative to DMSO = 1, read off a plot.
On to chain 1 V411Q R418S, for which the response (Relative AS signal) is 4.5.
Turning to chain 1 V411Q, the response (Relative AS signal) is 4.5.

The same experiment, now with this note: with biotinylated CRBN (wild type) [modified: biotin (added by BirA during cell-free synthesis), (S)-thalidomide, last (highest) point of the titration, Log[(S)-Thal (µM)] about 2.3, signal relative to DMSO = 1, read off a plot.
As to chain 1 V411Q R418S, the response (Relative AS signal) was found to be 62.
Still for that read-out and setting: as for chain 1 V411Q, the figure is 66.

The same experiment, now with this note: with biotinylated CRBN (wild type) [modified: biotin (added by BirA during cell-free synthesis), 5HP, last (highest) point of the titration, Log[5HP (µM)] = 2, signal relative to DMSO = 1, read off a plot.
chain 1 V411L: the response (Relative AS signal) came to 14.
chain 1 V411T: the response (Relative AS signal) was 43.
Still for that read-out and setting: with chain 1 V411A the figure was 26.
Same read-out and setting: as for chain 1 V411I, the figure is 51.

The same experiment, now with this note: with biotinylated CRBN (wild type) [modified: biotin (added by BirA during cell-free synthesis), (S)-5HT, last (highest) point of the titration, Log[(S)-5HT (µM)] = 2, signal relative to DMSO = 1, read off a plot.
Take chain 1 V411L: the response (Relative AS signal) came to 14.
Same read-out and setting: with chain 1 V411T the figure was 47; with chain 1 V411A, 29.
On the same count and under the same terms, as for chain 1 V411I, the figure is 63.

Still in this experiment, the particulars now being: with biotinylated CRBN (wild type) [modified: biotin (added by BirA during cell-free synthesis), (S)-thalidomide, last (highest) point of the titration, Log[(S)-Thal (µM)] = 2, signal relative to DMSO = 1, read off a plot.
As for chain 1 V411K, the response (Relative AS signal) is 7.
The same measure, in the same setting: as for chain 1 V411H, the figure is 20; as for chain 1 V411Q, 100; as for chain 1 V411R, 14.
Still for that read-out and setting: as for chain 1 V411I, the figure is 75.

Staying with this experiment, now noted: with biotinylated CRBN (wild type) [modified: biotin (added by BirA during cell-free synthesis), pomalidomide, last (highest) point of the titration, Log[Pom (µM)] = 2, signal relative to DMSO = 1, read off a plot.
Turning to chain 1 V411K, the response (Relative AS signal) was determined as 8.
chain 1 V411H: the response (Relative AS signal) was 22.
The same measure, in the same setting: with chain 1 V411Q the figure was 100; with chain 1 V411A, 52.
As to chain 1 V411R, the response (Relative AS signal) is 37.
Same read-out and setting: as for chain 1 V411I, the figure is 78.

Another experiment covers variants of B2. Kind of experiment: AlphaScreen (AS-based interaction assay). The conditions noted are these: with biotinylated CRBN (wild type) [modified: biotin (added by BirA during cell-free synthesis), (S)-5HT, last (highest) point of the titration, Log[(S)-5HT (µM)] about 2.3, signal relative to DMSO = 1, read off a plot.
Take chain 1 Q146V S153R: the response (Relative AS signal) was 26.
On the same count and under the same terms, with chain 1 Q146V the figure was 25.

Staying with this experiment, now noted: with biotinylated CRBN (wild type) [modified: biotin (added by BirA during cell-free synthesis), (S)-thalidomide, last (highest) point of the titration, Log[(S)-Thal (µM)] about 2.3, signal relative to DMSO = 1, read off a plot.
For the variant chain 1 Q146V S153R, the response (Relative AS signal) was determined as 14.
As for chain 1 Q146V, the response (Relative AS signal) turned out to be 28.

These data come from publication PMC7490372, “Structural bases of IMiD selectivity that emerges by 5-hydroxythalidomide” (Nature Communications, 2020).
